Experimental data as given in EP4335867A1 (Cellemedy Co., Ltd, dated 2024).

Target: T1, human transferrin receptor-Fc tag standard (human, UniProt P02786 89-760, limits assumed)
T1 construct: Coated on a 96 well plate at 2 ug/ml; also called hTfR; not shown: Fc tag
Assay: ELISA on plate-bound hTfR-Fc with anti-His detection; Kd calculated from an expected saturation point, since the curve was not saturated

T1 sequence (P02786 89-760 limits assumed): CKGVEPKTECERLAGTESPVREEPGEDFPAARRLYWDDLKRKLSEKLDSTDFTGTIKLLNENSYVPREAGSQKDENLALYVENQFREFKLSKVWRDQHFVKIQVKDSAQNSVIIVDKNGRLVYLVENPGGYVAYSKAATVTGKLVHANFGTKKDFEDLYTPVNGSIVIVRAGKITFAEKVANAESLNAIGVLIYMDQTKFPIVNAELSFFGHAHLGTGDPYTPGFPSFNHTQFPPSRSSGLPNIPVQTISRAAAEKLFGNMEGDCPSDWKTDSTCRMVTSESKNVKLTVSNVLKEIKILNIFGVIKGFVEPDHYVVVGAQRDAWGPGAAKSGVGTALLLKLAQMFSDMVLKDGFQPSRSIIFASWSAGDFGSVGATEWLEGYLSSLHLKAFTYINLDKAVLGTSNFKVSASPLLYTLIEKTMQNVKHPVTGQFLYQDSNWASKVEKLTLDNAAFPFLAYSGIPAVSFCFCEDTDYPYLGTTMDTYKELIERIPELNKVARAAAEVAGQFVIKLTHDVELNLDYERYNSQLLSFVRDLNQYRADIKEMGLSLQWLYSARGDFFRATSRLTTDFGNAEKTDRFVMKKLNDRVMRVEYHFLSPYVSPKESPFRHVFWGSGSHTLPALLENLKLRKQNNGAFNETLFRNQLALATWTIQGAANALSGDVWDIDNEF

B1: huHF_Mutant2-dual (designed binder)
chain: MTTASTSQVRQNYHAASEAAINAQINLELYASYVYLSMSYYFDRDDVALKNFAKYFLHQSHEEREHAEKLMKLQNQRGGRIALADIQKPDCDDGGSYGSLYAFDIWESGLNAMECALHLEKNVNQSLLALHALATAKNDPHLCDFIETHYLNEQVKAIKELGDHVTNLRKMGAPESGLAEYLFDKHTLGDSDNESMPSFITLASLSTWEGYFDF
notes: Spherical nanoparticle of 24 self-assembled monomers, made in E. coli; not shown: A hexa-His tag is present (Ni-NTA purification, anti-His detection)
Kd: ~4.4 µM
